Measured values from paper PMC6360386 (2018).

B1: Flag and GFP-fused PKN3 WT (mouse) [mouse] / p130Cas, endogenous in MDA-MB-231 cells [human (endogenous in MDA-MB-231)] (parent complex)
chain 1: MEHRKPGTGQRAPKDEKEMVRRAIQKELKIKEGMENMRRVATDRRHLGHVQQLLRASNRRLEQLHGELRELHAQVLLPASAEPVTSEPQPRAEQSRARLSEALHRQLQVELKVKQGAENMIHTCASGTPKERKLLAAAQQMLKDSQLKVALLRMKISSLESSGSPEPGPDLLAEELQHRLRVEAAVAAGAKNVVKLLGGQRMQDRKALAEAQAQLQESSQKLDLLRLALELLLERLPPTHSLRSRVTQELWMAMLGNPQPLGTLVKPIALTGTLQVRLLGCKDLLVAVPGRSPMAVLAGSPSESWLRTRSRQQRGGGELASEVLAVLKVDNRVVGQTGWGLVAEKSWDQSFIISLDRARELEIGVHWRDWRQLCGVAFLKLEDFLDNACHQLSLSLVPQGRLFAQVTFCEPVIERRPRLQRQRCIFSKRRGRDFMRASQMNLSMAAWGRLVMSLLPPCSSPNTASPPKGRPSTAVCGTPSAASPSNFLPMKTLSKEDTKPPPKPPRLYLQEPAPGTPCTKRPHMDPRPAVVPALAALSTRKPPRLQDFRCLAVLGRGHFGKVLLVQYKGTGKYYAIKALKKQEVLGRDEIDSLYCEKRILETVGRTGHPFLLSLLACLQTSSHACFVTEFLPGGDLMAQIHEDVFPEPQACFYLACVVLGLQFLHEKRIIYRDLKLDNLLLDAQGFLKIADFGLCKEGIGFGDRTSTFCGTPEFLAPEVLTQEAYTRAVDWWGLGVLLYEMLVGECPFPGDTEEEVFECIVSADVPCPHFLSVQGLELIQKLLQKSPEKRLGAGERDAEEIKVQPFFRTTNWQALLARTVQPPFVPTLCGPADLRYFEGEFTSLPPTLTPPVSQSSLTARQQAAFRDFDFVSEQFLES
chain 2: MNHLNVLAKALYDNVAESPDELSFRKGDIMTVLEQDTQGLDGWWLCSLHGRQGIVPGNRLKILVGMYDKKPAGPGPGPPATPAQPQPGLHAPAPPASQYTPMLPNTYQPQPDSVYLVPTPSKAQQGLYQVPGPSPQFQSPPAKQTSTFSKQTPHHPFPSPATDLYQVPPGPGGPAQDIYQVPPSAGMGHDIYQVPPSMDTRSWEGTKPPAKVVVPTRVGQGYVYEAAQPEQDEYDIPRHLLAPGPQDIYDVPPVRGLLPSQYGQEVYDTPPMAVKGPNGRDPLLEVYDVPPSVEKGLPPSNHHAVYDVPPSVSKDVPDGPLLREETYDVPPAFAKAKPFDPARTPLVLAAPPPDSPPAEDVYDVPPPAPDLYDVPPGLRRPGPGTLYDVPRERVLPPEVADGGVVDSGVYAVPPPAEREAPAEGKRLSASSTGSTRSSQSASSLEVAGPGREPLELEVAVEALARLQQGVSATVAHLLDLAGSAGATGSWRSPSEPQEPLVQDLQAAVAAVQSAVHELLEFARSAVGNAAHTSDRALHAKLSRQLQKMEDVHQTLVAHGQALDAGRGGSGATLEDLDRLVACSRAVPEDAKQLASFLHGNASLLFRRTKATAPGPEGGGTLHPNPTDKTSSIQSRPLPSPPKFTSQDSPDGQYENSEGGWMEDYDYVHLQGKEEFEKTQKELLEKGSITRQGKSQLELQQLKQFERLEQEVSRPIDHDLANWTPAQPLAPGRTGGLGPSDRQLLLFYLEQCEANLTTLTNAVDAFFTAVATNQPPKIFVAHSKFVILSAHKLVFIGDTLSRQAKAADVRSQVTHYSNLLCDLLRGIVATTKAAALQYPSPSAAQDMVERVKELGHSTQQFRRVLGQLAAA

Variants of: B1
Test: co-immunoprecipitation (IP anti-Flag sepharose, IB anti-p130Cas); MDA-MB-231 cells, transient transfection; parent: 1

Variant	ratio to parent
chain 1 P501A, chain 1 K503S, chain 1 P504A	0.2
chain 1 K577E	0.8
